This note sets out measurements from PMC4847170, “Insights into the DNA-binding mechanism of a LytTR-type transcription regulator”.

Where a chain is given by its changes, count along the chain named.

What all share (settings): protein: recombinant; tags: N-terminal 6His; chain copies: 2; label: 5' biotin on strand 1; blunt
In data set [1] the target is T1, YpdB-D53E (Escherichia coli, UniProt P0AE39 1-244, D53E).
T1 sequence: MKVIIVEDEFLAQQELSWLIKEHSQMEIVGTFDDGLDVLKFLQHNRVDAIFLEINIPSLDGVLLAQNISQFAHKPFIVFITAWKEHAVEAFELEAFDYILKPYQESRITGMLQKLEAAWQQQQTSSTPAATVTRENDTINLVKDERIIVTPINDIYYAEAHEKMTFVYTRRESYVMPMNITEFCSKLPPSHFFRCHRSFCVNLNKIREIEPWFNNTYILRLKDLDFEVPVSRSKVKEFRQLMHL
As to the kind of experiment: SPR; overall affinity from maximal binding rates, active protein concentration; SPR (Biacore T200, SA chip): HBS-EP, 10 mM HEPES pH 7.4, 150 mM NaCl, 3 mM EDTA, 0.005% P20, 25 C.

The target in another data set is T2, YpdB (Escherichia coli, UniProt P0AE39 1-244).
T2 sequence: T1 sequence with E53D
As to the kind of experiment: SPR; 1-50 nM protein; lower maximal binding rate and affinity than D53E; SPR (Biacore T200, SA chip): HBS-EP, 10 mM HEPES pH 7.4, 150 mM NaCl, 3 mM EDTA, 0.005% P20, 25 C.

In data set [2] the target is T1, YpdB-D53E. The data set is described as follows: SPR; 1-50 nM protein; binding completely abolished; SPR (Biacore T200, SA chip): HBS-EP, 10 mM HEPES pH 7.4, 150 mM NaCl, 3 mM EDTA, 0.005% P20, 25 C. For orientation: SPR reads the build-up and loss of mass on a sensor chip optically.

Broadly, the Kd is the constant that tells how readily two partners part at equilibrium.

B1: PyhjX (dsDNA)
DNA 1: GGGGCGCGTCATTCATTCCTGAACTAAGGCATTTCATTCCGTTCTGATGGCATTTCATGCCGGGGG
DNA 2: CCCCCGGCATGAAATGCCATCAGAACGGAATGAAATGCCTTAGTTCAGGAATGAATGACGCGCCCC
With B1, the Kd with YpdB-D53E [1] was 10 nM. In the data set with YpdB, the binding result is on record as “binds”.

B2: PyhjX_A (site A inactivated) (dsDNA)
DNA 1: GGGGCGCGTCATTCATTCCTGAACTAATTACGGGACGTCCGTTCTGATGGCATTTCATGCCGGGGG
DNA 2: CCCCCGGCATGAAATGCCATCAGAACGGACGTCCCGTAATTAGTTCAGGAATGAATGACGCGCCCC
As for B2, in the data set with YpdB-D53E [2], the binding result is “no binding”.
